According to paper PMC5069480, “MPP2 is a postsynaptic MAGUK scaffold protein that links SynCAM1 cell adhesion molecules to core components of the postsynaptic density” (Scientific Reports, 2016):

Target: T1, bacterially produced MPP2 PDZ-SH3-GK (MPP2 PSG module) (mouse)
T1 construct: source: E. coli Rosetta, purified (Ni-NTA, Superdex 75)
T1 sequence (Q9WV34 whole entry, looked up): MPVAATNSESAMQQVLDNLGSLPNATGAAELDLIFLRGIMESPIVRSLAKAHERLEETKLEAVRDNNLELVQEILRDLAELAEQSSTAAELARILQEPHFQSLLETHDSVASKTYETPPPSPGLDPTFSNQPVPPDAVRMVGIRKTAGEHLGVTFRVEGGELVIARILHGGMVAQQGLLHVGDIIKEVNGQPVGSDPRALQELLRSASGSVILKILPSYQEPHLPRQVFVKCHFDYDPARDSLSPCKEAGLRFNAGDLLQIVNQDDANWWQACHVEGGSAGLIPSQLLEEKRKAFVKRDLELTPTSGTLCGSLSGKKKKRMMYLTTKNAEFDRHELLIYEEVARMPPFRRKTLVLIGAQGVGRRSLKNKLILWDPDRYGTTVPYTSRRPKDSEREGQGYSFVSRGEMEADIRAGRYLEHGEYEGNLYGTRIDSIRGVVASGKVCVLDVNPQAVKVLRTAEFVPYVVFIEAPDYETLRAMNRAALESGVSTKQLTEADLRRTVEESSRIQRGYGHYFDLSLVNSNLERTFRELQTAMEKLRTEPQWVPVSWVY
Test: ITC; ITC200 at 25 °C; 200 mM NaCl, 20 mM Tris-HCl pH 7.5, 1 mM DTT; 350 μM mCherry-tagged peptide titrated into 55 μM MPP2 PSG module in the cell; single-site binding model
Conditions: both partners purified

B1: bacterially produced mCherry-tagged SynCAM1 peptide (C-terminus) (domain or fragment)
chain: GGGGSGGGGSGGGGSNSEEKKEYFI
- Kd: 3.1 ± 0.239 µM
